Experimental data as given in patent US20220098306A1 (published 2022).

T1: mouse Fc fusion of B7H3, full extracellular V1C1-V2C2 domain (human, UniProt Q5ZPR3 29-466)
T1 chain: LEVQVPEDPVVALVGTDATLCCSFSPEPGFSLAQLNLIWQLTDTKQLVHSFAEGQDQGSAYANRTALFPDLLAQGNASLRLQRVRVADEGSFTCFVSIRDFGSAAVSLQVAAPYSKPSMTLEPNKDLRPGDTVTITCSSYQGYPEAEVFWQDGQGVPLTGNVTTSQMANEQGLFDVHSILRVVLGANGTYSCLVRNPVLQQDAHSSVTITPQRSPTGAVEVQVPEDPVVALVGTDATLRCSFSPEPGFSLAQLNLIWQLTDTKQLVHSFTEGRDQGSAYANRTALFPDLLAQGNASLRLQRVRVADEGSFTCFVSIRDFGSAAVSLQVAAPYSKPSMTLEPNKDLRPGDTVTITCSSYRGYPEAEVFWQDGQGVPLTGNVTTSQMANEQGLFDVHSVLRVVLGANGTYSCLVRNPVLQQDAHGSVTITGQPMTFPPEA

T2: huB7H3 (V1C1)
T2 chain: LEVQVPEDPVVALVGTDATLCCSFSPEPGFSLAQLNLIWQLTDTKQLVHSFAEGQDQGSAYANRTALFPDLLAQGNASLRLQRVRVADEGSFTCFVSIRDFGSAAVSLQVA

T3: huB7H3 (V2C2)
T3 chain: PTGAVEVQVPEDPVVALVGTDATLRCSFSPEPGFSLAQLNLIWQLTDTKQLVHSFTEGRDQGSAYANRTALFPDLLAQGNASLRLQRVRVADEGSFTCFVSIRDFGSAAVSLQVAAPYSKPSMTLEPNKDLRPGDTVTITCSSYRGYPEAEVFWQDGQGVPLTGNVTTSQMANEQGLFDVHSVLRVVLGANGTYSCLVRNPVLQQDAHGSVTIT

B1: XENP34728 (6A1) (antibody, V domains shown)
VH: EVQLLESGGGLVQPGGSLRLSCAASGFTFSNYYMAWVRQAPGKGLEWVSSISTGGGSTYYRDSVKGRFTISRDNSKSTLYLQMNSLRAEDTAVYYCTTDLSAIAATPFAYWGQGTLVTVSS
VL: DIQMTQSPSSLSASVGDRVTITCRASQNIYTSLAWYQQKPGKAPKLLIYNAHSLQTGIPSRFSGSGSGADFTLTISSLQPEDFATYFCQQYYSGLTFGSGTKLEIKR
B2: XENP28428 (antibody, V domains shown)
VH: EVQLLESGGGLVQPGGSLRLSCAASGFTFSSYAMSWVRQAPGKGLEWVSTISGSGDSTYYADSVKGRFTISRDNSKNTLYLQMNSLRAEDTAVYYCAKSGPGLRQVGFDYWGQGTLVTVSS
VL: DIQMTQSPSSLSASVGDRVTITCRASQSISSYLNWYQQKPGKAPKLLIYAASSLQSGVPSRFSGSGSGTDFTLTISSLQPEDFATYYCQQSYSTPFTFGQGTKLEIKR
B3: human B7H3 (V1C1-V2C2) (ligand)
chain: T1 chain
B4: XENP34717 (bispecific antibody)
heavy 1: EVQLLESGGGLVQPGGSLRLSCAASGFTFSSYYMSWVRQAPGKGLEWVSTISESGDSTYYADSVKGRFTISRDNSKNTLYLQMNSLRAEDTAVYYCAKSGPGLRQVGFDYWGQGTLVTVSSASTKGPSVFPLAPSSKSTSGGTAALGCLVKDYFPEPVTVSWNSGALTSGVHTFPAVLQSSGLYSLSSVVTVPSSSLGTQTYICNVNHKPSDTKVDKKVEPKSCDKTHTCPPCPAPPVAGPSVFLFPPKPKDTLMISRTPEVTCVVVDVKHEDPEVKFNWYVDGVEVHNAKTKPREEEYNSTYRVVSVLTVLHQDWLNGKEYKCKVSNKALPAPIEKTISKAKGQPREPQVYTLPPSREEMTKNQVSLTCDVSGFYPSDIAVEWESDGQPENNYKTTPPVLDSDGSFFLYSKLTVDKSRWEQGDVFSCSVMHEALHNHYTQKSLSLSPGK
heavy 2: QVQLVQSGAEVKKPGASVKVSCKASGYIFTNNYMHWVRQAPGQGLEWMGIISPSVGRTAYAQKFQGRVTMTRDTSTSTVYMELSSLRSEDTAVYYCARGGGSSPRLDYWGQGTLVTVSSASTKGPSVFPLAPSSKSTSGGTAALGCLVKDYFPEPVTVSWNSGALTSGVHTFPAVLQSSGLYSLSSVVTVPSSSLGTQTYICNVNHKPSNTKVDKKVEPKSCDKTHTCPPCPAPPVAGPSVFLFPPKPKDTLMISRTPEVTCVVVDVKHEDPEVKFNWYVDGVEVHNAKTKPREEQYNSTYRVVSVLTVLHQDWLNGKEYKCKVSNKALPAPIEKTISKAKGQPREPQVYTLPPSREQMTKNQVKLTCLVKGFYPSDIAVEWESNGQPENNYKTTPPVLDSDGSFFLYSKLTVDKSRWQQGNVFSCSVMHEALHNHYTQKSLSLSPGK
light: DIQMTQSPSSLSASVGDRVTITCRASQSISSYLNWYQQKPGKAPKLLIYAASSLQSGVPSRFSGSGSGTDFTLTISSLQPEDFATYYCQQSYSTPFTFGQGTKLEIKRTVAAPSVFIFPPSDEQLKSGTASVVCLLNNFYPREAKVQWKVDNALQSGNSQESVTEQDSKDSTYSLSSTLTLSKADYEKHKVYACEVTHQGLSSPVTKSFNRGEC

Legend:
[1] = molecular target: T1, mouse Fc fusion of B7H3, full …; assay: Octet
huB7H3 (V1C1) = molecular target: T2, huB7H3 (V1C1); assay: Octet
huB7H3 (V2C2) = molecular target: T3, huB7H3 (V2C2); assay: Octet
[2] = molecular target: CD28 (antigen of the affinity determinations) (human, UniProt P10747 19-152); assay: Octet; avid

Binder | Kd [1] [nM] | Kd (huB7H3 (V1C1)) [nM] | Kd (huB7H3 (V2C2)) [nM] | Kd [2] [nM] | Kd (4F12_H2_L1.1) [nM]
B1 | 4.3 | 4.4 | 6.4 | – | –
B2 | – | – | – | 14.5 | –
B3 | – | – | – | – | < 0.1
B4 | 16 | 21 | 21 | – | –
